Assay results reported in publication doi:10.1101/2023.11.28.569006.

Assays:
[1] = biological target: artificial chaperone ADGroEL_SacSm (complete heptameric ring) (not stated | Sulfolobus acidocaldarius); test: pull-down
[2] = biological target: hetero-oligomers with three or more ADGroEL_SacSm in their composition; test: pull-down

stoichiometry N (αLA molecules per complete ring) [1]: 4 | stoichiometry N (αLA per ADGroEL) [2]: 0.5
B1: denatured alpha-Lactalbumin (αLA) (natural protein)
chain: EQLTKCEVFRELKDLKGYGGVSLPEWVCTTFHTSGYDTQAIVQNNDSTEYGLFQINNKIWCKDDQNPHSSNICNISCDKFLDDDLTDDIMCVKKILDKVGINYWLAHKALCSEKLDQWLCEKL
